According to US20240336657A1, “G-ALPHA-S PEPTIDE INHIBITORS AND USES THEREOF” (The Regents of the University of California, priority 2021, published 2024):
Positions of bridges follow the written chain, without caps; N, C: chain ends. Non-standard residues stand in square brackets, D forms with d.

B1: GD20-F10L (peptide)
peptide: {CH2CO}-[dY]LITFRQWALNLPCG-NH2
modifications: thioether N-14
SMILES: CC[C@H](C)[C@@H]1NC(=O)[C@H](CC(C)C)NC(=O)[C@@H](Cc2ccc(O)cc2)NC(=O)CSC[C@@H](C(=O)NCC(N)=O)NC(=O)[C@@H]2CCCN2C(=O)[C@H](CC(C)C)NC(=O)[C@H](CC(N)=O)NC(=O)[C@H](CC(C)C)NC(=O)[C@H](C)NC(=O)[C@H](Cc2c[nH]c3ccccc23)NC(=O)[C@H](CCC(N)=O)NC(=O)[C@H](CCCNC(=N)N)NC(=O)[C@H](Cc2ccccc2)NC(=O)[C@H]([C@@H](C)O)NC1=O
notes: Single substitution F10L of GD20; also called cell permeable GD20 analog F10L
B2: GN6 (peptide)
peptide: Ac-[dY]CFYEVWPYYLPCG-NH2
modifications: thioether (positions not given here); also: thioether partner Cys2 or Cys13 not settled
B3: GN1 (peptide)
peptide: {CH2CO}-[dY]QFIEVWPFYLPCG-NH2
modifications: thioether N-13
SMILES: CC[C@H](C)[C@@H]1NC(=O)[C@H](Cc2ccccc2)NC(=O)[C@H](CCC(N)=O)NC(=O)[C@@H](Cc2ccc(O)cc2)NC(=O)CSC[C@@H](C(=O)NCC(N)=O)NC(=O)[C@@H]2CCCN2C(=O)[C@H](CC(C)C)NC(=O)[C@H](Cc2ccc(O)cc2)NC(=O)[C@H](Cc2ccccc2)NC(=O)[C@@H]2CCCN2C(=O)[C@H](Cc2c[nH]c3ccccc23)NC(=O)[C@H](C(C)C)NC(=O)[C@H](CCC(=O)O)NC1=O
notes: the number is its rank in the selection
B4: GN7 (peptide)
peptide: {CH2CO}-[dY]SWPNQFDWFIELCG-NH2
modifications: thioether N-14
SMILES: CC[C@H](C)[C@@H]1NC(=O)[C@H](Cc2ccccc2)NC(=O)[C@H](Cc2c[nH]c3ccccc23)NC(=O)[C@H](CC(=O)O)NC(=O)[C@H](Cc2ccccc2)NC(=O)[C@H](CCC(N)=O)NC(=O)[C@H](CC(N)=O)NC(=O)[C@@H]2CCCN2C(=O)[C@H](Cc2c[nH]c3ccccc23)NC(=O)[C@H](CO)NC(=O)[C@@H](Cc2ccc(O)cc2)NC(=O)CSC[C@@H](C(=O)NCC(N)=O)NC(=O)[C@H](CC(C)C)NC(=O)[C@H](CCC(=O)O)NC1=O
B5: GN11 (peptide)
peptide: {CH2CO}-[dY]LTNWGVYWDQYWCG-NH2
modifications: thioether N-14
SMILES: CC(C)C[C@@H]1NC(=O)[C@@H](Cc2ccc(O)cc2)NC(=O)CSC[C@@H](C(=O)NCC(N)=O)NC(=O)[C@H](Cc2c[nH]c3ccccc23)NC(=O)[C@H](Cc2ccc(O)cc2)NC(=O)[C@H](CCC(N)=O)NC(=O)[C@H](CC(=O)O)NC(=O)[C@H](Cc2c[nH]c3ccccc23)NC(=O)[C@H](Cc2ccc(O)cc2)NC(=O)[C@H](C(C)C)NC(=O)CNC(=O)[C@H](Cc2c[nH]c3ccccc23)NC(=O)[C@H](CC(N)=O)NC(=O)[C@H]([C@@H](C)O)NC1=O
B6: GN3 (peptide)
peptide: {CH2CO}-[dY]NWSNQFDWFLDLCG-NH2
modifications: thioether N-14
SMILES: CC(C)C[C@@H]1NC(=O)[C@H](CC(=O)O)NC(=O)[C@H](CC(C)C)NC(=O)[C@H](Cc2ccccc2)NC(=O)[C@H](Cc2c[nH]c3ccccc23)NC(=O)[C@H](CC(=O)O)NC(=O)[C@H](Cc2ccccc2)NC(=O)[C@H](CCC(N)=O)NC(=O)[C@H](CC(N)=O)NC(=O)[C@H](CO)NC(=O)[C@H](Cc2c[nH]c3ccccc23)NC(=O)[C@H](CC(N)=O)NC(=O)[C@@H](Cc2ccc(O)cc2)NC(=O)CSC[C@@H](C(=O)NCC(N)=O)NC1=O
B7: GN8 (peptide)
peptide: {CH2CO}-[dY]QYTYPYLVIDWTCG-NH2
modifications: thioether N-14
SMILES: CC[C@H](C)[C@@H]1NC(=O)[C@H](C(C)C)NC(=O)[C@H](CC(C)C)NC(=O)[C@H](Cc2ccc(O)cc2)NC(=O)[C@@H]2CCCN2C(=O)[C@H](Cc2ccc(O)cc2)NC(=O)[C@H]([C@@H](C)O)NC(=O)[C@H](Cc2ccc(O)cc2)NC(=O)[C@H](CCC(N)=O)NC(=O)[C@@H](Cc2ccc(O)cc2)NC(=O)CSC[C@@H](C(=O)NCC(N)=O)NC(=O)[C@H]([C@@H](C)O)NC(=O)[C@H](Cc2c[nH]c3ccccc23)NC(=O)[C@H](CC(=O)O)NC1=O
B8: GN15 (peptide)
peptide: {CH2CO}-[dY]KYWDFDNFQELYCG-NH2
modifications: thioether N-14
SMILES: CC(C)C[C@@H]1NC(=O)[C@H](CCC(=O)O)NC(=O)[C@H](CCC(N)=O)NC(=O)[C@H](Cc2ccccc2)NC(=O)[C@H](CC(N)=O)NC(=O)[C@H](CC(=O)O)NC(=O)[C@H](Cc2ccccc2)NC(=O)[C@H](CC(=O)O)NC(=O)[C@H](Cc2c[nH]c3ccccc23)NC(=O)[C@H](Cc2ccc(O)cc2)NC(=O)[C@H](CCCCN)NC(=O)[C@@H](Cc2ccc(O)cc2)NC(=O)CSC[C@@H](C(=O)NCC(N)=O)NC(=O)[C@H](Cc2ccc(O)cc2)NC1=O

What follows are binders tested against T1, Biotinylated Avi-tagged WT Gαs (residues 7-380 of the short isoform of human Gαs), GDP-bound (human, UniProt P63092 7-394, biotin on the Avi tag (BirA)) (assay: TR-FRET competition: biotinylated GDP-bound Gαs WT against His-Gβγ(C68S)).
T1 construct: Loaded with GDP; Same polypeptide as m7, other nucleotide state; also called biotinylated Gαs WT
T1 sequence (P63092 other isoform, or with tags, fused parts or gaps limits assumed): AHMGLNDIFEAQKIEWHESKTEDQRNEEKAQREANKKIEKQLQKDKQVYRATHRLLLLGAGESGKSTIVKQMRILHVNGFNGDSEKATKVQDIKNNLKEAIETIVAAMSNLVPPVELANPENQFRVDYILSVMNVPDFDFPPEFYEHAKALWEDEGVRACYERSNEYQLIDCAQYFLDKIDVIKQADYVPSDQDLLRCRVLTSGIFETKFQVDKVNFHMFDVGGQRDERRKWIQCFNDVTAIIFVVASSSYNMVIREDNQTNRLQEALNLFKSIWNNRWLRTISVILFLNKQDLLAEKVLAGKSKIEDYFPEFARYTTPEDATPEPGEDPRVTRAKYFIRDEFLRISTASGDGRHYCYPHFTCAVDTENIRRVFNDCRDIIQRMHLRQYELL
Method: (§1) Biotinylated avi-Gαs (6-end, WT) and avi-Gαi (FL, WT) were diluted to 32 nM (8×) using assay buffer (1× PBS 7.4, 2 mM DTT, 0.1% BSA, 2 mM MgCl₂, 0.05% Tween plus 0.5 mM GDP), followed by mixing with a same volume of 8× streptavidin XL665 stock (32 nM in the assay buffer). 8× His-Gβ/γ (C68S) stock (16 nM) and 8× anti-6His-Tb cryptate stock (0.4 μg/mL) were added into the Gα/XL665 mixtures. Finally, 2× stocks of cyclic peptides were added with the protein mixtures. After incubation at room temperature for 2 hour at room temperature. […] FRET Signal was calculated as the ratio of [Read B]/[Read A].

Binder | IC50
B1 | 14 nM

What follows are binders tested against T1, Biotinylated Avi-tagged WT Gαs … (assay: TR-FRET competition: biotinylated Gαs or Gαi (GDP) against His-Gβγ(C68S)).
Method: as §1

Binder | fold selectivity for Gαs over Gαi
B1 | 100 fold

The binders below were run against T2, Biotinylated His/Avi-tagged Gαs used in the RaPID selection, GppNHp-bound (human, UniProt P63092 7-394, biotin on the Avi tag (BirA co-expressed)) (assay: RaPID comparison selection: peptide-mRNA-cDNA complexes on Gαs-immobilized streptavidin beads, qPCR and sequencing).
T2 construct: Immobilized on streptavidin magnetic beads
T2 sequence (P63092 other isoform, or with tags, fused parts or gaps limits assumed): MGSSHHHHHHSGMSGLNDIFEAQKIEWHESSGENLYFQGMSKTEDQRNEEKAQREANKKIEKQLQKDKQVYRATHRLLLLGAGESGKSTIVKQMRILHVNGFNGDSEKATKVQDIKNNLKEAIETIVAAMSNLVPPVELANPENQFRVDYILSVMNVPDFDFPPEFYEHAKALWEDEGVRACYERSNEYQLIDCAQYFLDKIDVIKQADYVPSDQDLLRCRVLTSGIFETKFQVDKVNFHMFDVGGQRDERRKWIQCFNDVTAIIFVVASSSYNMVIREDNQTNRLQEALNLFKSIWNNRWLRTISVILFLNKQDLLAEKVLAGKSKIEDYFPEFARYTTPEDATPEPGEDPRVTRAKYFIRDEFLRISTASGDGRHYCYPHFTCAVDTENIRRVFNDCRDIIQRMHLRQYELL

Binder | fold selectivity for GppNHp-bound over GDP-bound Gαs
B2 | > 100 fold
B3 | > 100 fold
B4 | > 100 fold
B5 | > 100 fold
B6 | > 100 fold
B7 | > 100 fold
B8 | > 100 fold
